Data: patent US20230287489

Target: T1, human placental RNase inhibitor (NEB, Cat #M0307S), P13489
T1 chain: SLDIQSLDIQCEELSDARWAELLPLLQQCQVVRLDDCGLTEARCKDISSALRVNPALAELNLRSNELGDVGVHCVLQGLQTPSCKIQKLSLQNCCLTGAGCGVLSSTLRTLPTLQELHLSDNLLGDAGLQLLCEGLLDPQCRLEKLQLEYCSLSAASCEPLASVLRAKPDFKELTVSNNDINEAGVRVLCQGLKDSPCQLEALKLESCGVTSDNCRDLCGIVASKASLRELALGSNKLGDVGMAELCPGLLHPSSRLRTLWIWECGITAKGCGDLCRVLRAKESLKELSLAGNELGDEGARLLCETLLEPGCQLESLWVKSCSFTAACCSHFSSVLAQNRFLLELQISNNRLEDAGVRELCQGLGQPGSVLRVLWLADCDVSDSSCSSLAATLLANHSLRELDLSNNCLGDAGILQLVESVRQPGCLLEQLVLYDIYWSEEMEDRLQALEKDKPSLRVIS

B1: recombinant wild-type human RNase4 (hRNase 4), periplasmically expressed as an MBP fusion protein (protein)
chain: QDGMYQRFLRQHVHPEETGGSDRYCNLMMQRRKMTLYHCKRFNTFIHEDIWNIRSICSTTNIQCKNGKMNCHEGVVKVTDCRDTGSSRAPNCRYRAIASTRRVVIACEGNPQVPVHFDG
  cleavage of a target RNA oligonucleotide (SEQ ID NO: 23) by hRNase 4, LC-MS/MS: cleavage of the target oligonucleotide was inhibited following preincubation of hRNase 4 with human placental RNase inhibitor
